Substrate in the series: O=c1ccn([C@@H]2O[C@H](COP(=O)(O)OP(=O)(O)O[C@H]3O[C@@H]([C@H](O)CO)[C@H](O)[C@H]3O)[C@@H](O)[C@H]2O)c(=O)[nH]1
Put plainly: purified protein.

[1] abbreviates: 25 mM HEPES, 125 mM NaCl, 20 mM dithionite, pH 7.5, 37 °C.

B1: MtUGM (Mycobacterium tuberculosis H37Rv) (protein)
chain: MQPMTARFDLFVVGSGFFGLTIAERVATQLDKRVLVLERRPHIGGNAYSEAEPQTGIEVHKYGAHLFHTSNKRVWDYVRQFTDFTDYRHRVFAMHNGQAYQFPMGLGLVSQFFGKYFTPEQARQLIAEQAAEIDTADAQNLEEKAISLIGRPLYEAFVKGYTAKQWQTDPKELPAANITRLPVRYTFDNRYFSDTYEGLPTDGYTAWLQNMAADHRIEVRLNTDWFDVRGQLRPGSPAAPVVYTGPLDRYFDYAEGRLGWRTLDFEVEVLPIGDFQGTAVMNYNDLDVPYTRIHEFRHFHPERDYPTDKTVIMREYSRFAEDDDEPYYPINTEADRALLATYRARAKSETASSKVLFGGRLGTYQYLDMHMAIASALNMYDNVLAPHLRDGVPLLQDGA
A word on the Km: it is the concentration of substrate that gives half-maximal velocity. What is called kcat/Km is the second-order rate constant that governs catalysis at low substrate concentration. For B1, where the note is “pH 7.5, 37.0 °C”, the Km was determined as 78 ± 16 µM and the kcat/Km was 910000 ± 150000 M⁻¹ s⁻¹.

B2: AfUGM (wild-type) (Aspergillus fumigatus) (protein)
chain: MTHPDISVDVLVIGAGPTGLGAAKRLNQIDGPSWMIVDSNETPGGLASTDVTPEGFLYDVGGHVIFSHYKYFDDCLDEALPKEDDWYTHQRISYVRCQGQWVPYPFQNNISMLPKEEQVKCIDGMIDAALEARVANTKPKTFDEWIVRMMGTGIADLFMRPYNFKVWAVPTTKMQCAWLGERVAAPNLKAVTTNVILGKTAGNWGPNATFRFPARGGTGGIWIAVANTLPKEKTRFGEKGKVTKVNANNKTVTLQDGTTIGYKKLVSTMAVDFLAEAMNDQELVGLTKQLFYSSTHVIGVGVRGSRPERIGDKCWLYFPEDNCPFYRATIFSNYSPYNQPEASKKLPTMQLADGSRPQSTEAKEGPYWSIMLEVSESSMKPVNQETILADCIQGLVNTEMLKPTDEIVSTYHRRFDHGYPTPTLEREGALTQILPKLQDKDIWSRGRFGSWRYEVGNQDHSFMLGVEAVDNIVNGAVELTLNYPDFVNGRQNTERRLVDGAQVFAKSKAQ
As usually defined, the kcat is the maximal rate divided by the concentration of active sites. Regarding B2, under setting [1], the Km was 110 ± 15 µM, the kcat was 72 ± 4 s⁻¹ and the kcat/Km was determined as 650000 ± 90000 M⁻¹ s⁻¹.

(Values after paper PMC4270374.)
